Assay results from patent publication US20210369812A1, “OSTEOINDUCTIVE PEPTIDES, COMPOSITIONS, IMPLANTS, AND METHODS OF USE” (The Board of Regents of the University of Oklahoma, priority 2018, published 2021).
“Also recorded” adds a separate entry of the source.

How the values were obtained:
[1] = molecular target: T1, BMPR2 (Homo sapiens, UniProt Q13873); test: Biopanning of Ph.D.-12 phage library on immobilized BMPR2-Fc; format: binding; settings: peptide displayed on p3 of M13 phage; 3 rounds of panning
T1 construct: purchased G&P Biosciences
T1 sequence (Q13873 27-150 limits assumed): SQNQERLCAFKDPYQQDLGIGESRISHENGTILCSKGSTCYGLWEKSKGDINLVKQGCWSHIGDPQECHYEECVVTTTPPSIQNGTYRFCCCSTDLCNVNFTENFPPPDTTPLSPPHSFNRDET
Protocol: (§1) The Ph.D.™-12 phage library was diluted in tris-buffered saline mixed with Tween-20 (TBS+0.1% v/v Tween-20 and abbreviated TBST) for a final concentration of 2×10^11 phage in 1 mL of TBST. The diluted library was then pipetted onto one of the wells of a 12-well poly-L-lysine plate followed by rocking the plate gently for 60 minutes at room temperature. […] This supernatant served as the starting phage library for subsequent binding selections. The phages which stuck to the plate were discarded.
(§2) This procedure is only applicable if the charge of the desired protein to be immobilized is negative, determined by checking the pI value of the protein. […]. This procedure was written for 12-well plates coated in poly-L-lysine (positively charged). Separate solutions of BMPR1A-Fc and BMPR2-Fc were prepared at 80 μg/ml in Tris-buffered saline (pH 7.5). In separate wells and on separate poly-L-lysine coated 12-well plates, 0.3 ml of each solution of receptor was added. The solutions of BMPR1A-Fc and BMPR2-Fc were swirled around the plate surface until the entire surface was wet. The plates were then incubated overnight at 4° C. with gentle agitation in a humidified container (a sealed plastic box with damp paper towels). Each individual receptor was now immobilized.
(§3) The following selection procedure is based off of the direct coating procedure outlined in the Ph.D.™-12 Phage Display Libraries instructional manual (New England Biolabs) with some alterations. This procedure was carried out after immobilizing the targets BMPR1A-Fc and BMPR2-Fc in a 12-well poly-L-lysine coated plate. A stock solution of tetracycline was prepared (20 mg/ml in 1:1 ethanol:water). The coating solution containing the target receptors was poured off followed by firmly slapping the plates face down on a clean paper towel. Each well was then filled with blocking buffer (0.1 M NaHCO3 (pH 8.6), 5 mg/mL BSA, 0.02% NaN3. Filter sterilize, store at 4° C.) and incubated for 1 hour at 4° C. The blocking solution was then poured off followed by firmly slapping the plates down against a clean paper towel. Each plate was washed rapidly 6 times with Tris-buffered saline mixed with Tween-20 (TBS+0.1% v/v Tween-20). The plate was slapped against a clean paper towel each time. 1 ml of the phage library created from the negative selection process was then pipetted onto each of the target coated wells. The plates were then rocked gently at room temperature for 60 min. The non-binding phages were then discarded by pouring off the supernatant and slapping the plate face-down on a clean paper towel. The plate was then washed 10 times with TBST followed by slapping the plate face-down on a clean paper towel each time (a clean section of paper towel was used each time to prevent cross-contamination). The bound phages were then eluted by incubating with a nonspecific disruption buffer (0.2 M Glycine-HCl (pH 2.2), 1 mg/ml bovine serum albumin (BSA) for 15 minutes. The eluate (immersed in the disruption buffer) was then pipetted into a microcentrifuge tube followed by neutralization with 150 μl of 1 M Tris-HCl (pH 9.1). A small portion (˜1 μl) of this eluate could be titered and sequenced if desired. The rest of the eluate was amplified (see amplification of phage library section). Once amplified, the eluate was also titered. Determine the concentration of amplified phages by counting the blue plaques in titering as described. Dilute the amplified library to contain 2×10^11 phages in 1 mL of TBS (as little as 10^9 plaque forming units per ml can be used if there is not enough). A second poly-L-lysine 12-well plate was then coated with the target receptors to allow for a second round of biopanning carried out using the same steps except that the Tween-20 concentration in the wash steps was raised to 0.5% (v/v). The eluate from the second round was then amplified, titered and used in an additional 3rd round of panning on newly receptor coated plates. […]

[2] = molecular target: T2, BMPR1A (Homo sapiens, UniProt P36894); test: Biopanning of Ph.D.-12 phage library on immobilized BMPR1A-Fc; format: binding; settings: peptide displayed on p3 of M13 phage; 3 rounds of panning
T2 construct: purchased G&P Biosciences
Protocol: as §1, §2, §3

[3] = tested on: human mesenchymal stem cells (hMSCs); test: Live cell binding through immunofluorescence; format: cell-based; settings: 10^12 phages/ml
Protocol: Human mesenchymal stem cells (hMSCs) were grown to roughly 60% plate coverage in a 48-well tissue culture plate according to the company Lonza's culturing protocols. […] The hMSCs were then blocked with 0.5% BSA (dissolved in cell media) for 1 hour. The cell media for the hMSCs was then replaced with 1 ml of new cell media having of concentration of 10^12 phages/ml. Next, the plates were washed once with 400 μl of phosphate buffered saline (PBS) at a pH of 7.4. The hMSCs were then incubated with Anti-M13 Bacteriophage Coat Protein g8p antibody [RL-ph2] (ab9225) at a 1:1000 dilution in cell media (200 μl per well). The wells were then washed again with PBS (400 μl per wash). Next, the hMSCs were incubated with the secondary antibody, Goat-anti mouse AF-488 (Abcam) for 1 hour (1 ug/ml final concentration of antibody in media). The wells were then washed again with PBS (400 μl per wash). A Hoechst nuclear stain was used to stain the nuclei (PureBlu™ Hoechst 33342 Nuclear Staining Dye #1351304 from BioRad) according to the company's protocol. Cell Mask™ Orange Plasma Membrane Stain was used to stain membranes (CellMask™ Orange Plasma Membrane Stain Catalog number: C10045 from Thermo Fisher Scientific) according to the company's protocol. The phages binding to the cells were then imaged on a Nikon Eclipse Ti fluorescent microscope.

[4] = molecular target: T1, BMPR2; test: Enzyme-linked immune sorbent assay for receptor binding (BMPR2); settings: peptide on p3 of M13 phage; absorbance 450 nm; n=4; vs wild type phage
Description: (§4) Groups having the same lowercase letter assigned (above the bar) were not statistically different from each other. Groups having different letters assigned (above the bar) were statistically different from each other. […] The primary antibody was mouse anti-g3p (p8) IgG. The secondary antibody was anti-mouse IgG conjugated with horseradish peroxidase. The substrate, 3,3′,5,5′-Tetramethylbenzidine was detected at 450 nm after stopping the reaction with 1 M HCl.
(§5) Blocking buffer (0.1 M NaHCO3 (pH 8.6), 5 mg/ml BSA. Filter sterilized, stored at 4° C.) was prepared. TBS (50 mM Tris-HCl (pH 7.5), 150 mM NaCl, autoclaved, stored at room temperature) was prepared. Separate solutions of the target receptors were then made. For BMPR1A, a 10 μg/ml stock solution was made. For BMPR2, a 10 μg/ml solution was also made. Separate wells with n=4 for each different peptide bearing phage group were then coated with one of the receptors. […] After a brief pilot test, it should be noted that using 10^10 phage/ml was determined to work best, but other concentrations of virus also worked consistently. […] Then, […] of freshly prepared 3,3′,5,5′-Tetramethylbenzidine (TMB) was added to each well and the absorbance at 370 nm and 652 nm was monitored for 1 hour using an ELISA plate reader. […] The absorbance at 450 nm for each well was then measured.

[5] = molecular target: T2, BMPR1A; test: Enzyme-linked immune sorbent assay for receptor binding (BMPR1A); settings: peptide on p3 of M13 phage; absorbance 450 nm; n=4; vs wild type phage
Description: as §4
as §5, with “receptors. The coating was done by adding 100 μl of the target solution to wells of a 96-well plate followed by swirling until the surface was completely wet. The plates were then allowed to incubate overnight at 4° C. with gentle agitation in a humidified container (a plastic box lined with damp paper towels). Any excess target solution was then removed, and the plate was slapped face-down on a clean paper towel. The wells of the plate were then blocked with 200 μl of blocking buffer for 1 hour at room temperature. […] The blocking buffer was then removed from each plate followed by 5 washes with 200 μl of TBST. Each time the plate was slapped against a clean section of paper towel face-down.” for “receptors.”

T2 sequence (P36894 24-152 limits assumed): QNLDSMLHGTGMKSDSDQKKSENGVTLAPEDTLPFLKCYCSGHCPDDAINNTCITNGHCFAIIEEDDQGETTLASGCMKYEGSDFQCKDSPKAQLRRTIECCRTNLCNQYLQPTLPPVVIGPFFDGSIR

TSKYLTMRPGPK (Completely synthesized in the lab - Ph.D.-12 Phage Display Peptide Library Kit (New England Biolabs))
Binding to BMPR2 found by biopanning (frequency among sequenced plaques) [1]: discovered to bind | Binding to BMPR1A found by biopanning (frequency among sequenced plaques) [2]: discovered to bind

NAKYPTMRPGPL (Completely synthesized in the lab - Ph.D.-12 Phage Display Peptide Library Kit (New England Biolabs))
Binding to BMPR2 found by biopanning (frequency among sequenced plaques) [1]: discovered to bind | Binding to BMPR1A found by biopanning (frequency among sequenced plaques) [2]: discovered to bind

NAKYPTMRPGPK (Completely synthesized in the lab - Ph.D.-12 Phage Display Peptide Library Kit (New England Biolabs))
Binding to BMPR2 found by biopanning (frequency among sequenced plaques) [1]: discovered to bind | Binding to BMPR1A found by biopanning (frequency among sequenced plaques) [2]: discovered to bind

DYHDPSLPTLRK (Completely synthesized in the lab - Ph.D.-12 Phage Display Peptide Library Kit (New England Biolabs))
Binding to BMPR2 found by biopanning (frequency among sequenced plaques) [1]: discovered to bind | Binding to BMPR1A found by biopanning (frequency among sequenced plaques) [2]: discovered to bind

GNNPLHVHHDKR (Completely synthesized in the lab - Ph.D.-12 Phage Display Peptide Library Kit (New England Biolabs))
Binding to BMPR2 found by biopanning (frequency among sequenced plaques) [1]: discovered to bind | Binding to BMPR1A found by biopanning (frequency among sequenced plaques) [2]: discovered to bind

TAKSLPMRPGPL (Completely synthesized in the lab - Ph.D.-12 Phage Display Peptide Library Kit (New England Biolabs))
Binding to BMPR2 found by biopanning (frequency among sequenced plaques) [1]: discovered to bind | Binding to BMPR1A found by biopanning (frequency among sequenced plaques) [2]: discovered to bind

RDYHPRDHTATW (Completely synthesized in the lab - Ph.D.-12 Phage Display Peptide Library Kit (New England Biolabs))
Binding to BMPR2 found by biopanning (frequency among sequenced plaques) [1]: most frequent peptide; also recorded: discovered to bind | Binding of peptide-bearing phages to live hMSCs [3]: bound to what appeared to be the same location as the outer membrane; also recorded: demonstrated an ability to bind to the outer membrane | Binding to BMPR1A found by biopanning (frequency among sequenced plaques) [2]: discovered to bind | Relative binding strength in ELISA to BMPR2 [4]: statistically significant binders

TAKYLPMRPGPL (Completely synthesized in the lab - Ph.D.-12 Phage Display Peptide Library Kit (New England Biolabs))
Relative binding strength in ELISA to BMPR1A [5]: best binders | Binding to BMPR2 found by biopanning (frequency among sequenced plaques) [1]: discovered to bind | Binding to BMPR1A found by biopanning (frequency among sequenced plaques) [2]: most frequently obtained peptide; also recorded: discovered to bind
